This test concerns the target human MHC-I HLA-A2.1 expressed on RMA-S-A2.1 cells (murine TAP-deficient RMA-S cells engineered to express … (human, UniProt A*02:01)). Kind of test: cell-based or functional assay.
TQSPSVFPL [test peptide number 539.10 (human IgE CH1 nonamer, Thr Gln Ser Pro Ser Val Phe Pro Leu)]: the “HLA-A2.1-specific fluorescence intensity (FACS, surface HLA-A2.1 on TAP-deficient RMA-S-A2.1 cells after overnight incubation with 50 micromoles per liter peptide)” value came to 1 log.
Take WVDNKTFSV [test peptide number 539.12 (human IgE CH1 nonamer, Trp Val Asp Asn Lys Thr Phe Ser Val)]: the “HLA-A2.1-specific fluorescence intensity (FACS, surface HLA-A2.1 on TAP-deficient RMA-S-A2.1 cells after overnight incubation with 50 micromoles per liter peptide)” value was 1 log.
QLPDARHST [test peptide number 539.9 (human IgE CH4 nonamer, Gln Leu Pro Asp Ala Arg His Ser Thr)]: the “HLA-A2.1-specific fluorescence intensity (FACS, surface HLA-A2.1 on TAP-deficient RMA-S-A2.1 cells after overnight incubation with 50 micromoles per liter peptide)” value is 1 log.
WLSDRTYTC [test peptide number 539.11 (human IgE CH2 nonamer, Trp Leu Ser Asp Arg Thr Tyr Thr Cys)]: the “HLA-A2.1-specific fluorescence intensity (FACS, surface HLA-A2.1 on TAP-deficient RMA-S-A2.1 cells after overnight incubation with 50 micromoles per liter peptide)” value came to 1 log.
For the molecule LLTVSGAWA [test peptide number 539.8 (human IgE CH1 nonamer, Leu Leu Thr Val Ser Gly Ala Trp Ala)], the “HLA-A2.1-specific fluorescence intensity (FACS, surface HLA-A2.1 on TAP-deficient RMA-S-A2.1 cells after overnight incubation with 50 micromoles per liter peptide)” value turned out to be 1 log.

The record behind these values is US20030073142A1 (published 2003).
